Experimental data reported in article PMC5593925.

What was measured:
[1] = target: fetuin (UniProt P12763); experiment: MST; fluorescently labelled host protein, Ef-Tu unlabelled; 40%, 60% and 80% MST power, 30 s
[2] = target: actin (UniProt P68135); experiment: MST
[3] = target: plasminogen (affinity column for M. pneumoniae lysate; microscale thermophoresis); experiment: MST; fluorescently labelled host protein, Ef-Tu unlabelled; 40%, 60% and 80% MST power, 30 s

Chain of UniProt P12763 (P12763 19-359): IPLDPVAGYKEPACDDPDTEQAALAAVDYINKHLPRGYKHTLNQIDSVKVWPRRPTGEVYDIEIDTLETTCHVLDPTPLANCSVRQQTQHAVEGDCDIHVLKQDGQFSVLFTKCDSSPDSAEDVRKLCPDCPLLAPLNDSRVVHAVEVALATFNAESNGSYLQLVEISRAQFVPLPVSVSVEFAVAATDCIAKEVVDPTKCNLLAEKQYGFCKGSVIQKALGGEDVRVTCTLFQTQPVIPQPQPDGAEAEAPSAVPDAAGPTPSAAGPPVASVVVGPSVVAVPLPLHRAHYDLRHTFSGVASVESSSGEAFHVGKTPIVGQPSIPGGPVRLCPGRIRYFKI

recombinant Elongation factor Tu of Mycoplasma pneumoniae (from UniProt P23568 1-394) (natural protein; other documents disagree on this pair)
Kd [1]: 0.053 µM

recombinant Elongation factor Tu of Mycoplasma pneumoniae (from UniProt P23568 1-394) (natural protein)
Kd [2]: 0.019 µM
Kd [3]: 0.933 µM
